Measured values reported in patent US20110263014.
Residue numbers refer to the chain shown, from its start.

Assays:
[1] = target: T1, mouse Nanog (mNanog) (UniProt Q80Z64)
T1 sequence: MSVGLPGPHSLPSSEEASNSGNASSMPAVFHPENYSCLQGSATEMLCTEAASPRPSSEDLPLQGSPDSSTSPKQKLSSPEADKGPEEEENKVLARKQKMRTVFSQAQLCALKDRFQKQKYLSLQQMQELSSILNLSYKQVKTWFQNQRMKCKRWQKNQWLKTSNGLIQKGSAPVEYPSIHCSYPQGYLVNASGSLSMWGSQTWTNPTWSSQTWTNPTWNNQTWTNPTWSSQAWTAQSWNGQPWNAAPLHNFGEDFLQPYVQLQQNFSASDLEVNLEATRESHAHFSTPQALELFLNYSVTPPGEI

[2] = target: T2, mNanog (D67G) (UniProt Q80Z64)
T2 sequence: T1 sequence with D67G

recombinant caspase-9
cleavage of immunoprecipitated mNanog by recombinant caspase [1]: Only caspase-9 effectively cleaved mNanog into a 27 kDa fragment
in vitro caspase cleavage assay [1]: caspase-9 can effectively cleave in vitro-translated mNanog
cleavage of immunoprecipitated mNanog (D67G) by recombinant caspase [2]: Mutation D67G in mNanog greatly diminished cleavage of mNanog by caspase-9
